Measured values from patent publication US12221483 (CHINA MEDICAL UNIVERSITY HOSPITAL, dated 2025).

Target: T1, recombinant CD3E protein (UniProt P07766 23-126, limits assumed)
T1 construct: also called CD3ε; CD3 epsilon
Assay: SPR (BIAcore T200); fusion protein on exosomes (1x10^11) coated on CM5 chip, recombinant CD3E protein as analyte at 700-21.9 nM; fusion protein (1×10^11) coated on CM5 chip; recombinant CD3E as analyte

T1 sequence (P07766 23-126 limits assumed): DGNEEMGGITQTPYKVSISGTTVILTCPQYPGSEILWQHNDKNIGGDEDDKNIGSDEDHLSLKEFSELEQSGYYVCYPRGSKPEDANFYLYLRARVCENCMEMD

B1: fusion protein comprising anti-CD3 single domain antibody and exosomal protein CD63 (other)
chain: MAVEGGMKCVKFLLYVLLLAFCACAVGLIAVGVGAQLVLSQTIIQGATPGSLLPVVIIAVGVFLFLVAFVGCCGACKENYCLMITFAIFLSLIMLVEVAAAIAGYVFRDKVMSEFNNNFRQQMENYPKNNHTASAHVQLVESGGGSVQAGGSLRLSCTVSGVIFKNEYMGWFRQAPGKEREGVAAASPGGTITYYGDSVKGRFTISRDNAKNTVYLQMNRLKPEDTAMYYCALDPSTTSWSIIRHGPSLWRYSGRGTQVTVSSGSSILDRMQADFKCCGAANYTDWEKIPSMSKNRVPDSCCINVTVGCGINFNEKAIHKEGCVEKIGGWLRKNVLVVAAAALGIAFVEVLGIVFACCLVKSIRSGYEVM
notes: in the SPR assay the exosomes carrying the fusion protein (1x10^11) were coated on a CM5 chip; also called anti-CD3 single domain antibody-CD63 chimeric protein; CD3ε Nb-Exo
Kd: 2.1 nM
